Assay [1] addresses chimeric hexon of the Ad5 vector Ad5:H57.1 (Ad5 hexon with residues 112-593 from Ad57 hexon, on virions) (human adenovirus 5 | human adenovirus 57) (UniProt P04133). Nature of the assay: SPR; Biacore T200; about 300 to 5,000 RU of Ad virions immobilised on a CM5 chip, coagulation factors flowed over at four concentrations, 50 uL/min; running buffer 10 mM HEPES, 150 mM NaCl, 1 mM CaCl2, 0.5 mM MgCl2, 0.1% BSA, 0.05% polysorbate 20, pH 7.4; regeneration with 3 mM EDTA; global fit to a 1:1 kinetic interaction model, double referencing. (In general: SPR reads the build-up and loss of mass on a sensor chip optically.)

For assay [2], the target named is chimeric hexon of the Ad5 vector Ad5:H6.2 (Ad6 hexon section with HVR7 mutations, on virions) (human adenovirus 5 | human adenovirus 6) (UniProt P04133). The description is as above.
Assay [3] concerns the target hexon of wild-type human adenovirus type 1 (on virions) (human adenovirus 1). Described as above.
Assay [4] concerns the target chimeric hexon of the Ad5 vector Ad5:H6.1 (Ad5 hexon with residues 112-593 from Ad6 hexon, on virions) (human adenovirus 5 | human adenovirus 6) (UniProt P04133). The description is as above.
Assay [5] deals with chimeric hexon of the Ad5 vector Ad5:H6.3 (Ad6 hexon section with HVR7 mutations, on virions) (human adenovirus 5 | human adenovirus 6) (UniProt P04133). Described as above.
Assay [6] concerns the target chimeric hexon of the Ad5 vector Ad5:H1.1 (Ad5 hexon with residues 112-593 from Ad1 hexon, on virions) (human adenovirus 5 | human adenovirus 1) (UniProt P04133). The assay is described as above.
Assay [7] deals with chimeric hexon of Ad5:H57.1 (Ad5 vector, hexon residues 112-593 from Ad57 hexon), on the virion (human adenovirus type 5 | human adenovirus type 57) (UniProt P04133). Briefly: SPR; Biacore T200; about 300 to 5,000 RU of Ad virions immobilised on a CM5 chip, coagulation factors flowed over at four concentrations, 50 uL/min; 10 mM HEPES, 150 mM NaCl, 1 mM CaCl2, 0.5 mM MgCl2, 0.1% BSA, 0.05% polysorbate 20, pH 7.4; global fit to a 1:1 kinetic interaction model, double referencing.

Assay [8] concerns the target chimeric hexon of Ad5:H1.1 (Ad5 vector, hexon residues 112-593 from Ad1 hexon), on the virion (human adenovirus type 5 | human adenovirus type 1) (UniProt P04133). Described as above.
The target in assay [9] is chimeric hexon of Ad5:H6.1 (Ad5 vector, hexon residues 112-593 from Ad6 hexon), on the virion (human adenovirus type 5 | human adenovirus type 6) (UniProt P04133). Described as above.
The target of assay [10] is chimeric hexon of Ad5:H6.2 (Ad5 vector, hexon residues 112-593 from Ad6 hexon, HVR7 IGNTDTF), on the virion (human adenovirus type 5 | human adenovirus type 6) (UniProt P04133). The description is as above.
Assay [11] has as its target chimeric hexon of Ad5:H6.3 (Ad5 vector, hexon residues 112-593 from Ad6 hexon, HVR7 IGNTETF), on the virion (human adenovirus type 5 | human adenovirus type 6) (UniProt P04133). The description is as above.

With “bovine prothrombin (coagulation factor II) (from UniProt P00735 44-625) (natural protein)”, the Kd was found to be 27 nM in [1]; 950 nM in assay [2]; 37 nM in assay [3]; 67 nM in assay [4]; 2500 nM in assay [5]; 34 nM in [6]. Besides, the Kd was found to be 27 nM in assay [7]; 34 nM in assay [8]; 67 nM in assay [9]; 950 nM in assay [10]; 2500 nM in [11]. The koff turned out to be 0.000993 s⁻¹ in assay [1]; 0.0291 s⁻¹ in [2]; 0.00193 s⁻¹ in assay [3]; 0.0039 s⁻¹ in assay [4]; 0.0729 s⁻¹ in assay [5]; 0.00224 s⁻¹ in assay [6]. Besides, the kon came to 37400 M⁻¹ s⁻¹ in [1]; 30500 M⁻¹ s⁻¹ in [2]; 52800 M⁻¹ s⁻¹ in [3]; 58200 M⁻¹ s⁻¹ in [4]; 29200 M⁻¹ s⁻¹ in [5]; 65800 M⁻¹ s⁻¹ in assay [6].

As usually defined, the Kd is the constant that tells how readily two partners part at equilibrium. High values mean lower affinity, low ones higher affinity. As a reminder, the koff is the rate constant with which the complex falls apart. The low end stands for slow dissociation, the high end for fast dissociation. By kon is commonly meant the second-order rate constant of association.
